T1: FLT3 on Nalm16 cells (human, UniProt P36888 27-993)
T1 construct: whole, on cells; Endogenous FLT3 of the NALM16 leukemia cell line; also called NALM16 (FLT3+); NALM-16 cells expressing FLT3
T1 sequence (looked up): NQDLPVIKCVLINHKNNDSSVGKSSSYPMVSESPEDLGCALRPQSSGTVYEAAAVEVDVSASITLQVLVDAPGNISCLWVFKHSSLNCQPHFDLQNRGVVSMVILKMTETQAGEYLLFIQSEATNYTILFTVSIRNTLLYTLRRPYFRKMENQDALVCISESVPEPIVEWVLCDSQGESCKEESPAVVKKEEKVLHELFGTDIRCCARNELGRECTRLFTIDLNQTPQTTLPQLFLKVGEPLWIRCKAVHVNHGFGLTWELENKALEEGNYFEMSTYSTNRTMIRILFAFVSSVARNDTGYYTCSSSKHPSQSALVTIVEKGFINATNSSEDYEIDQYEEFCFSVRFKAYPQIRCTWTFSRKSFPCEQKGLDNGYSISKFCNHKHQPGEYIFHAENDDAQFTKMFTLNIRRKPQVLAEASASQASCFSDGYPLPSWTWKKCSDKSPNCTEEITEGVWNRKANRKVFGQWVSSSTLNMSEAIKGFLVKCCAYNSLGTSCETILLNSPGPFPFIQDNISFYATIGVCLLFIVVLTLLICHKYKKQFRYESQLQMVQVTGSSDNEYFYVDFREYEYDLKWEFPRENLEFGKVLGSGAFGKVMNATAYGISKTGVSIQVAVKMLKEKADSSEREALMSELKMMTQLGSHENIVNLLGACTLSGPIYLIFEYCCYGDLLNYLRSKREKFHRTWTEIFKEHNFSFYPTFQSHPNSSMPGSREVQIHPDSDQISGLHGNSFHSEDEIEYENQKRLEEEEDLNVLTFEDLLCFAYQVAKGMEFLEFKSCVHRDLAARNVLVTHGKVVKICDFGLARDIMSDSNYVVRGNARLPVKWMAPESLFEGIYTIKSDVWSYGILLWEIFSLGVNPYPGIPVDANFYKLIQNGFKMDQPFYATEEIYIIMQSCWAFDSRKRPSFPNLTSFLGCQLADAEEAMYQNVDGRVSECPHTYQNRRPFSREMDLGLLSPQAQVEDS

T2: His tagged, recombinant FLT3 protein (Sino Biologicals) (human, UniProt P36888 27-541, limits assumed)
T2 construct: Bought protein; also called soluble recombinant FLT3 protein; not shown: His tag
T2 sequence (looked up): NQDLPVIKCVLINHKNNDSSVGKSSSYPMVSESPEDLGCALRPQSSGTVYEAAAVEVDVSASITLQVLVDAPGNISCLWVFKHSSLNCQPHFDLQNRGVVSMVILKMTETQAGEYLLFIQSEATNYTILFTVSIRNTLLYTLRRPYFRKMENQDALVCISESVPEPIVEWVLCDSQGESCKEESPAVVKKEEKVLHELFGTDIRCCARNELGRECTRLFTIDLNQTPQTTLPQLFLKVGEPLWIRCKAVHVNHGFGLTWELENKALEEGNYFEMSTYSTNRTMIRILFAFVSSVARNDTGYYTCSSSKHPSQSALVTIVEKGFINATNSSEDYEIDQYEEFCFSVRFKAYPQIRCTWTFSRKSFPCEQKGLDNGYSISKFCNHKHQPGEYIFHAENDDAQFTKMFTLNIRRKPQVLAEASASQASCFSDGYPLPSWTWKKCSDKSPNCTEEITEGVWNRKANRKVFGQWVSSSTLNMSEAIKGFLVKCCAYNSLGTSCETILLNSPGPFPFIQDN

B1: bispecific FLT3xCD3 IgGsc antibody V5-V6 (CC-2 variant 5) (bispecific antibody)
heavy: QVQLVQSGAEVKKPGGSLRLSCAASGYTFTSYWMHWVRQAPGQGLEWIGEIDPSDSYKDYNQKFKDRVTISRDTSKNTLYLQLSSLRAEDTAVYYCARAITTTPFDFWGQGTLVTVSSASTKGPSVFPLAPSSKSTSGGTAALGCLVKDYFPEPVTVSWNSGALTSGVHTFPAVLQSSGLYSLSSVVTVPSSSLGTQTYICNVNHKPSNTKVDKKVEPKSCDKTHTCPPCPAPPVAGPSVFLFPPKPKDTLMISRTPEVTCVVVGVSHEDPEVKFNWYVDGVEVHNAKTKPREEQYNSTYRVVSVLTVLHQDWLNGKEYKCKVSNKQLPSPIEKTISKAKGQPREPQVYTLPPSRDELTKNQVSLTCLVKGFYPSDIAVEWESNGQPENNYKTTPPVLDSDGSFFLYSKLTVDKSRWQQGNVFSCSVMHEALHNHYTQKSLSLSPGKSGDIQMTQSPSSLSASVGDRVTITCRASQDIRNYLNWYQQKPGKAPKLLIYYTSRLESGVPSRFSGSGSGTDYTLTISSLQPEDFATYYCQQGNTLPWTFGQGTKVEIKGGGGSGGGGSGGGGSEVQLVESGGGLVQPGGSLRLSCAASGYSFTGYTMNWVRQAPGKGLEWVALINPYKGVSTYNQKFKDRFTISVDKSKNTAYLQMNSLRAEDTAVYYCARSGYYGDSDWYFDVWGQGTLVTVSS
light: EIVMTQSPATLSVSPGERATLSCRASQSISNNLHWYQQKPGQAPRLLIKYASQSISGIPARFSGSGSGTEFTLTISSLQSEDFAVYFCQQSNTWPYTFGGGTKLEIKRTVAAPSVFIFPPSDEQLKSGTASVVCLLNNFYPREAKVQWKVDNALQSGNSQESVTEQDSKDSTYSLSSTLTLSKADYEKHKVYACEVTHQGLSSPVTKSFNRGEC
notes: Fc-attenuated IgGsc format; also called Version 5; CC-2 V5
B2: bispecific FLT3xCD3 IgGsc antibody V3-V6 (CC-2 variant 3) (bispecific antibody)
heavy: QVQLVQSGAEVKKPGASVKVSCKASGYTFTSYWMHWVRQAPGQGLEWIGEIDPSDSYKDYNQKFKDRVTMTRDTSTSTVYMELSSLRSEDTAVYYCARAITTTPFDFWGQGTTVTVSSASTKGPSVFPLAPSSKSTSGGTAALGCLVKDYFPEPVTVSWNSGALTSGVHTFPAVLQSSGLYSLSSVVTVPSSSLGTQTYICNVNHKPSNTKVDKKVEPKSCDKTHTCPPCPAPPVAGPSVFLFPPKPKDTLMISRTPEVTCVVVGVSHEDPEVKFNWYVDGVEVHNAKTKPREEQYNSTYRVVSVLTVLHQDWLNGKEYKCKVSNKQLPSPIEKTISKAKGQPREPQVYTLPPSRDELTKNQVSLTCLVKGFYPSDIAVEWESNGQPENNYKTTPPVLDSDGSFFLYSKLTVDKSRWQQGNVFSCSVMHEALHNHYTQKSLSLSPGKSGDIQMTQSPSSLSASVGDRVTITCRASQDIRNYLNWYQQKPGKAPKLLIYYTSRLESGVPSRFSGSGSGTDYTLTISSLQPEDFATYYCQQGNTLPWTFGQGTKVEIKGGGGSGGGGSGGGGSEVQLVESGGGLVQPGGSLRLSCAASGYSFTGYTMNWVRQAPGKGLEWVALINPYKGVSTYNQKFKDRFTISVDKSKNTAYLQMNSLRAEDTAVYYCARSGYYGDSDWYFDVWGQGTLVTVSS
light: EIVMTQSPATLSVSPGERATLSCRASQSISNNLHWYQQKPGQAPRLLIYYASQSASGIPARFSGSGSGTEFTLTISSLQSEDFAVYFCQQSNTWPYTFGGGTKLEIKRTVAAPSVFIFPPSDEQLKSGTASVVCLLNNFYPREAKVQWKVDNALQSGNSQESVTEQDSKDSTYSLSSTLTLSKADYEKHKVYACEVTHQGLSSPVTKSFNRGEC
notes: Fc-attenuated IgGsc format; also called Version 3; CC-2 V3
B3: bispecific FLT3xCD3 IgGsc antibody V4-V6 (CC-2 variant 4) (bispecific antibody)
heavy: B2 heavy
light: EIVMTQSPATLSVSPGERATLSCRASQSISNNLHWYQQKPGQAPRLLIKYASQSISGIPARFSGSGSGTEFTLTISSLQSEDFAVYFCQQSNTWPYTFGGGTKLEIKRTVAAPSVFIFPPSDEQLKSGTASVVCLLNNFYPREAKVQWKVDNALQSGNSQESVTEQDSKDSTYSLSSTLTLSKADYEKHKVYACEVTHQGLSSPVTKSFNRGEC
notes: Fc-attenuated IgGsc format; also called Version 4; CC-2 V4

Biological target: T1, FLT3 on Nalm16 cells
Assay: flow cytometry (row 'EC50, FACS binding' under the bars; binding to NALM16 cells of FIG. 4)
Procedure: (§1) In addition, antibody binding affinity was also tested using binding of the antibody to its target(s) as expressed on cells. Analyzed is the binding of CC-2 variants to Nalm16 cells expressing FLT3 (FIG. 4) or Jurkat cells expressing CD3 (FIG. 6). Variants V1 to V9 (with V6 being V6-V6) were produced after transient transfection of CHO cells using the insert sequences listed above. The antibodies were purified by protein A affinity- and size exclusion-chromatography. […] To measure antibody binding to FLT3 and CD3 NALM16 (FLT3+) and Jurkat (CD3+) cells were incubated with the respective variants for 30 min, washed, stained with a goat anti human Fcγ-specific and PE-conjugated secondary antibody (Jackson Immuno Research), washed again and analyzed by flow cytometry (FACSCalibur, BD Biosciences).

Point of comparison: B2, EC50 8 nM. Against it:
- B1 — 6.2-fold lower, 1.3 nM
- B3 — 1.6-fold lower, 5 nM

Biological target: T2, His tagged, recombinant FLT3 protein …
Assay: SPR (Biacore X); antibody captured on protein A chip, His-tagged recombinant FLT3 in solution
Procedure: FIG. 3 depicts binding of different CC-2 variants to soluble recombinant FLT3 protein. Respective antibody variants were immobilized to a Biacore chip coated with protein A and binding of His tagged, recombinant FLT3 protein (Sino Biologicals) was determined using a Biacore X instrument (GE Healthcare). Shown are the results of various mutated variants of the FLT3 antigen binding domain (V1 to V5).
In FIG. 3 the binding of different FLT3 binding domain variants V1 to V5 as indicated above was tested for their dissociation constant using a soluble recombinant FLT3 protein. Respective antibody variants were immobilized to a Biacore chip coated with protein A and binding of His tagged, recombinant FLT3 protein (Sino Biologicals) was determined using a Biacore X instrument (GE Healthcare).

Point of comparison: B3, Kd 480 nM. Against it:
- B1 — 3-fold lower, 160 nM
- B2 — 180-fold higher, 87000 nM

Point of comparison: B3, koff 0.00887 s⁻¹. Against it:
- B1 — 2-fold lower, 0.00449 s⁻¹
- B2 — 2.6-fold higher, 0.0233 s⁻¹

Point of comparison: B3, kon 18800 M⁻¹ s⁻¹. Against it:
- B1 — 1.6-fold higher, 29600 M⁻¹ s⁻¹
- B2 — 68-fold lower, 276 M⁻¹ s⁻¹

Biological target: T1, FLT3 on Nalm16 cells
Assay: flow cytometry on NALM16 cells (FLT3+), 30 min incubation, PE-conjugated goat anti-human Fc-gamma secondary antibody
Procedure: as §1

Point of comparison: B1, “EC50 (read off the curve)” value ~1 nM. Against it:
- B2 — 8-fold higher, ~8 nM
- B3 — 5-fold higher, ~5 nM

Reference: patent US20220056141A1 (DEUTSCHES KREBSFORSCHUNGSZENTRUM STIFTUNG DES OFFENTLICHEN …, published 2022)
